In test [1] the test system is α-thrombin binding to platelets. The test is described as follows: 125I-α-thrombin binding to platelets. The conditions noted are these: HK, LK, domain 3: molar excess.
Test [2] deals with fibroblasts (thrombin receptor, PAR 1). Description: α-thrombin-induced calcium mobilization in fibroblasts. It counts as cell-based. How it is done: (§1) A variation of the calcium mobilization assay uses fibroblasts (which express a single receptor for thrombin, PAR 1), umbilical vein endothelial cells, or other cells which express the cloned thrombin receptor, and which grow in monolayers on the bottom of plastic wells.
(§2) Fibroblasts or endothelial cells were grown in 24-96 well plates and loaded with the fluorescent Ca^2+ indicator fura-2 acetyloxymethylester (5 μM, Molecular Probes Inc.) by incubation for 60 min. in HEPES-Tyrode's buffer at 37° C. After washing the cells, the fluorescence of the cells was monitored on a thermostatically controlled heated pad at 37° C. for 1 min, then the cells were incubated with α-thrombin (1 to 5 nM) in the absence or presence of a BK analog. Fluorescence was detected by a Perkin-Elmer LS-50B Luminescence Spectrofluorometer. Excitation was measured at 340 and 380 nm wavelength and emission was assessed at 510 nm. The cytosolic Ca^2+ levels were determined as described above. The Rmax value was determined using 10 mM Ca^2+ in the presence of 20 μM Ionophor A23187; Rmin was determined in the presence of 20 mM EDTA.
(§3) The ability of BK analogs to inhibit α-thrombin-induced calcium mobilization in fibroblasts and human umbilical vein endothelial cells (HUVEC) was assayed as described in Example 1C.

Test [3] deals with human umbilical vein endothelial cells (HUVEC). Description: α-thrombin-induced calcium mobilization in HUVEC. Format: cell-based. How it is done:
as §1, §2, §3

Entries after “also recorded” stand apart in the source; their conditions may differ.

B1: HK: human high molecular weight kininogen (protein, UniProt P01042 19-644, looked up)
Kininogen-1: QESQSEEIDCNDKDLFKAVDAALKKYNSQNQSNNQFVLYRITEATKTVGSDTFYSFKYEIKEGDCPVQSGKTWQDCEYKDAAKAATGECTATVGKRSSTKFSVATQTCQITPAEGPVVTAQYDCLGCVHPISTQSPDLEPILRHGIQYFNNNTQHSSLFMLNEVKRAQRQVVAGLNFRITYSIVQTNCSKENFLFLTPDCKSLWNGDTGECTDNAYIDIQLRIASFSQNCDIYPGKDFVQPPTKICVGCPRDIPTNSPELEETLTHTITKLNAENNATFYFKIDNVKKARVQVVAGKKYFIDFVARETTCSKESNEELTESCETKKLGQSLDCNAEVYVVPWEKKIYPTVNCQPLGMISLMKRPPGFSPFRSSRIGEIKEETTVSPPHTSMAPAQDEERDSGKEQGHTRRHDWGHEKQRKHNLGHGHKHERDQGHGHQRGHGLGHGHEQQHGLGHGHKFKLDDDLEHQGGHVLDHGHKHKHGHGHGKHKNKGKKNGKHNGWKTEHLASSSEDSTTPSAQTQEKTEGPTPIPSLAKPGVTVTFSDFQDSDLIATMMPPISPAPIQSDDDWIPDIQIDPNGLSFNPISDFPDTTSPKCPGRPWKSVSEINPTTQMKESYYFDLTDGLS
modifications: high molecular weight kininogen
On to B1, for which the “inhibition of 125-α-thrombin binding to platelets” value in test [1] is recorded as “inhibit”. For the same molecule, the “inhibition of α-thrombin-induced calcium mobilization in fibroblasts (FIG. 5)” value in test [2] is listed as “inhibited calcium mobilization; also recorded: inhibition”. Besides, the “inhibition of α-thrombin-induced calcium mobilization in endothelial cells (FIG. 6)” value in test [3] is reported as “inhibited calcium mobilization; also recorded: inhibition”.

(Values after patent US6982249B1, “Bradykinin analogs as selective inhibitors of cell activation” (The Regents of the University of Michigan, priority 1997, dated 2006).)
